In patent US20160264677A1 (GANYMED PHARMACEUTICALS, published 2016):
Substitutions are numbered along the chain they refer to. Numbers in names are those of the source. One block for each binder: values may come before it.

Experiments:
human CLDN3 (claudin 3) [1] = biological target: T1, human CLDN3 (claudin 3) (human, UniProt O15551 1-220); assay: flow cytometry, HEK293 cells stably expressing the claudin
T1 sequence: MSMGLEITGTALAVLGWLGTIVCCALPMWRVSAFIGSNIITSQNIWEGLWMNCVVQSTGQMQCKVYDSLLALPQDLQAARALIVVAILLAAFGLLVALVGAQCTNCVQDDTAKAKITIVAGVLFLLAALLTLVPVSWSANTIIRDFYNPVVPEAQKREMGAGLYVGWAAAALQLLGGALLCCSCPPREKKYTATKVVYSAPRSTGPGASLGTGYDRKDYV
Protocol: (§1) To test the specificities and affinities of CLDN6-specific chimeric monoclonal antibodies binding to HEK293 cells stably transfected with CLDN3, 4, 6 or 9, respectively, and tumor cell lines that endogenously express CLDN6 was analyzed by flow cytometry. Therefore, cells were harvested with 0.05% Trypsin/EDTA, washed with FACS buffer (PBS containing 2% FCS and 0.1% sodium azide) and resuspended in FACS buffer at a concentration of 2×10⁶ cells/ml. 100 μl of the cell suspension were incubated with the appropriate antibody at indicated concentrations for 60 min at 4° C. A chimeric cross-reactive antibody (chimAB 5F2D2) was used to detect CLDN6 and CLDN9 expression. […] The cells were washed twice and resuspended in FACS buffer. The binding was analyzed by flow cytometry using a BD FACSArray.

human CLDN4 (claudin 4) [2] = biological target: T2, human CLDN4 (claudin 4) (human, UniProt O14493 1-209); assay: as above
T2 sequence: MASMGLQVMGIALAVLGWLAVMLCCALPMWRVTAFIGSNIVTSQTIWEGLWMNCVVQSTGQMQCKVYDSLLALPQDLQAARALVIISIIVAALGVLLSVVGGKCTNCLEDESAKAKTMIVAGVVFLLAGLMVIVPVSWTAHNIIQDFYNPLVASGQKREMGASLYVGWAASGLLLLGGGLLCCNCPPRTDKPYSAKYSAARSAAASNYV
Protocol: as §1

[3] = biological target: T3, human CLDN6 (claudin 6), full length (human, UniProt P56747 1-220); assay: flow cytometry, saturation binding on HEK293 cells stably expressing human CLDN6, median fluorescence
T3 construct: denatured cell lysate in the Western blot; also called NP 067018.2
T3 sequence: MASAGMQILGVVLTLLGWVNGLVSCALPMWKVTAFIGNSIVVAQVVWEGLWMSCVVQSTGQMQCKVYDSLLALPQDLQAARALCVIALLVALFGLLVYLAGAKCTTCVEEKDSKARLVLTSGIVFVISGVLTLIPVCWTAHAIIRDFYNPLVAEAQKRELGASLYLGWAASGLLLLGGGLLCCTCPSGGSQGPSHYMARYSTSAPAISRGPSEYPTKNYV
Protocol: (§2) The binding of CLDN6-specific chimeric monoclonal antibodies to cells expressing the target was analyzed by flow cytometry. Therefore, cells were harvested with 0.05% Trypsin/EDTA, washed with FACS buffer (PBS containing 2% FCS and 0.1% sodium azide) and resuspended in FACS buffer at a concentration of 2×10⁶ cells/ml. 100 pl of the cell suspension were incubated with the appropriate antibody at indicated concentrations for 30 min at 4° C. […] The cells were washed twice and resuspended in FACS buffer. The binding was analyzed by flow cytometry using a BD FACSArray.

human CLDN3 (claudin 3) [4] = biological target: T1, human CLDN3 (claudin 3); assay: flow cytometry, HEK293T cells transiently co-transfected with the claudin and a fluorescence reporter
Protocol: (§3) To test the binding of monoclonal antibodies to CLDN6 and its homologous HEK293T cells were transiently transfected with the corresponding claudin-coding plasmid and the expression was analyzed by flow cytometry. In order to differentiate between transfected and non-transfected cells, HEK293T cells were co-transfected with a fluorescence marker as a reporter. 24 h post transfection cells were harvested with 0.05% trypsin/EDTA, washed with FACS buffer (PBS containing 2% FCS and 0.1% sodium azide) and resuspended in FACS buffer at a concentration of 2×10⁶ cells/ml. 100 μl of the cell suspension were incubated with the appropriate antibody at indicated concentrations for 30 min at 4° C. […] The cells were washed twice and resuspended in FACS buffer. The binding was analyzed by flow cytometry using a BD FACSArray. The expression of the fluorescence marker was plotted on the horizontal axis against the antibody binding on the vertical axis.

human CLDN4 (claudin 4) [5] = biological target: T2, human CLDN4 (claudin 4); assay: as above
Protocol: as §3

human CLDN9 (claudin 9) [6] = biological target: T4, human CLDN9 (claudin 9) (human, UniProt O95484 1-217); assay: flow cytometry, HEK293 cells stably expressing the claudin
T4 sequence: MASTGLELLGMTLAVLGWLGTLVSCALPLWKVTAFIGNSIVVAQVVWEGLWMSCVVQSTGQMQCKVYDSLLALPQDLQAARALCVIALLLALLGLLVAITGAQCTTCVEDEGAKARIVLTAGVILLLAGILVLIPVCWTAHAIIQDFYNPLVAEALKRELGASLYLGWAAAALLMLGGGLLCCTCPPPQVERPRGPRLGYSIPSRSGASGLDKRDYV
Protocol: as §1

human CLDN9 (claudin 9) [7] = biological target: T4, human CLDN9 (claudin 9); assay: flow cytometry, HEK293T cells transiently co-transfected with the claudin and a fluorescence reporter
Protocol: as §3

[8] = biological target: T3, human CLDN6 (claudin 6), full length; assay: flow cytometry on NEC8 testicular cancer cells endogenously expressing CLDN6, median fluorescence
Protocol: as §2

human CLDN3 (claudin 3) [9] = biological target: T1, human CLDN3 (claudin 3); assay: flow cytometry, HEK293T cells transiently co-transfected with the claudin and a fluorescence reporter; remark: listed apart in the source
human CLDN9 (claudin 9) [10] = biological target: T4, human CLDN9 (claudin 9); assay: as above; remark: listed apart in the source
[11] = biological target: T3, human CLDN6 (claudin 6), full length; assay: flow cytometry on OV90 ovarian cancer cells endogenously expressing CLDN6, median fluorescence
Protocol: as §2

[12] = biological target: T3, human CLDN6 (claudin 6), full length; assay: flow cytometry, NEC8 testicular cancer cells endogenously expressing human CLDN6
Protocol: as §2

human CLDN4 (claudin 4) [13] = biological target: T2, human CLDN4 (claudin 4); assay: flow cytometry, HEK293T cells transiently co-transfected with the claudin and a fluorescence reporter; remark: listed apart in the source

- binding result (human CLDN3 (claudin 3) [1]): no binding (tested: 25 µg/ml (legend))
- binding result (human CLDN4 (claudin 4) [2]): no binding (tested: 25 µg/ml (legend))
- EC50 (read off the curve) [3]: ~0.2 µg/mL
B1: chimeric monoclonal antibody chimAB 64A (antibody, human IgG1, kappa, V domains shown)
VH: EVQLQQSGPELVKPGASMKISCKASGYSFTGYTMNWVKQSHGKNLEWIGLINPYNGGTIYNQKFKGKATLTVDKSSSTAYMELLSLTSEDSAVYYCARDYGFVLDYWGQGTTLTVSS
VL: QIVLTQSPSIMSVSPGEKVTITCSASSSVSYMHWFQQKPGTSPKLCIYSTSNLASGVPARFSGRGSGTSYSLTISRVAAEDAATYYCQQRSNYPPWTFGGGTKLEIKR
notes: Mouse/human chimeric IgG1, kappa

- binding result (human CLDN3 (claudin 3) [4]): no binding (tested: 25 µg/ml (legend))
- binding result (human CLDN4 (claudin 4) [5]): no binding (tested: 25 µg/ml (legend))
B2: murine monoclonal antibody muMAB 64A (antibody, mouse IgG2a, V domains shown)
VH: B1 VH
VL: QIVLTQSPSIMSVSPGEKVTITCSASSSVSYMHWFQQKPGTSPKLCIYSTSNLASGVPARFSGRGSGTSYSLTISRVAAEDAATYYCQQRSNYPPWTFGGGTKLEIK
notes: also called GT512muMAB 64A; DSM ACC3070

- binding result (human CLDN3 (claudin 3) [1]): no binding (tested: 25 µg/ml (legend))
- binding result (human CLDN4 (claudin 4) [2]): no binding (tested: 25 µg/ml (legend))
- binding result (human CLDN9 (claudin 9) [6]): no binding (tested: 25 µg/ml (legend))
B3: chimeric monoclonal antibody chimAB 61D (antibody, human IgG1, kappa, V domains shown)
VH: B1 VH with I59S, V72I, F102Y
VL: QIVLTQSPAIMSASPGEKVTITCSASSSVSYLHWFQQKPGTSPKLWVYSTSNLPSGVPARFGGSGSGTSYSLTISRMEAEDAATYYCQQRSIYPPWTFGGGTKLEIKR
notes: as for B1

- binding result (human CLDN3 (claudin 3) [4]): no binding (tested: 25 µg/ml (legend))
- binding result (human CLDN4 (claudin 4) [5]): no binding (tested: 25 µg/ml (legend))
- binding result (human CLDN9 (claudin 9) [7]): no binding (tested: 25 µg/ml (legend))
B4: murine monoclonal antibody muMAB 61D (antibody, mouse IgG2a, V domains shown)
VH: B1 VH with I59S, V72I, F102Y
VL: QIVLTQSPAIMSASPGEKVTITCSASSSVSYLHWFQQKPGTSPKLWVYSTSNLPSGVPARFGGSGSGTSYSLTISRMEAEDAATYYCQQRSIYPPWTFGGGTKLEIK
notes: the assignment is an inference; also called GT512muMAB 61D; DSM ACC3069

- EC50 (read off the curve) [8]: ~0.2 µg/mL
- binding result (human CLDN3 (claudin 3) [9]): no binding
- binding result (human CLDN9 (claudin 9) [10]): no binding
- EC50 (read off the curve) [11]: ~0.4 µg/mL
- fold stronger binding affinity compared to chimAB 64A, mAb206-SUBG and mAb206-SUBS [12]: 3 fold
- EC50 (read off the curve) [3]: ~0.2 µg/mL
B5: chimeric monoclonal antibody mAb206-LCC (antibody, human IgG1, kappa, V domains shown)
VH: B1 VH
VL: B3 VL
notes: inferred; also called light-chain combination variant

- EC50 (read off the curve) [8]: ~0.5 µg/mL
- binding result (human CLDN3 (claudin 3) [9]): no binding
- binding result (human CLDN4 (claudin 4) [13]): no binding
- binding result (human CLDN9 (claudin 9) [10]): no binding
- EC50 (read off the curve) [11]: ~0.5 µg/mL
- EC50 (read off the curve) [3]: ~0.2 µg/mL
B6: chimeric monoclonal antibody mAb206-SUBS (antibody, human IgG1, kappa, V domains shown)
VH: B1 VH
VL: B1 VL with C46S
notes: Chimeric IgG1, kappa; also called amino acid substitution variant (C46S)

- EC50 (read off the curve) [8]: ~0.5 µg/mL
- binding result (human CLDN3 (claudin 3) [9]): no binding
- binding result (human CLDN4 (claudin 4) [13]): no binding
- binding result (human CLDN9 (claudin 9) [10]): no binding
- EC50 (read off the curve) [11]: ~0.5 µg/mL
- EC50 (read off the curve) [3]: ~0.2 µg/mL
B7: chimeric monoclonal antibody mAb206-SUBG (antibody, human IgG1, kappa, V domains shown)
VH: B1 VH
VL: B1 VL with C46G
notes: Chimeric IgG1, kappa; also called amino acid substitution variant (C46G)
